# Measurements taken from publication PMC9758051.
# Key:
# [1] = target: turkey β1-adrenergic receptor, engineered thermostabilised construct (modified β44-m23) (turkey (M. gallopavo)) (UniProt P07700); assay: native MS; tβ1AR 5 μM with mini-Gs 6 μM, orciprenaline 2 at 250 μM
# [2] = target: turkey β1-adrenergic receptor, engineered thermostabilised construct (modified β44-m23) (turkey (M. gallopavo)) (UniProt P07700); assay: native MS; tβ1AR 5 μM with mini-Gs 6 μM, isoprenaline derivative 5 at 250 μM
# [3] = target: turkey β1-adrenergic receptor, engineered thermostabilised construct (modified β44-m23) (turkey (M. gallopavo)) (UniProt P07700); assay: native MS; tβ1AR 5 μM with mini-Gs 6 μM, 1-phenyl-2[(propan-2-yl)amino]ethan-1-ol 3 at 250 μM
# [4] = target: tβ1AR variant with alanine mutations on TM5 (E233A and E236A) (turkey (M. gallopavo)) (UniProt P07700); assay: native MS; tβ1AR with mini-Gα at 1:1.2 molar ratio, 4 °C, at least 20 min, coupling buffer (10 mM HEPES, 10 mM Tris-HCl pH 7.4, 200 mM NaCl, 1 mM MgCl2, 5 mM GDP, 0.05% DDM) with isoprenaline 1 at 25 μM
# endogenous metal (Zn2+) = assay: mass spectrometry (MS) of receptor-mini-Gs complex; conditions: metal-binding read on the tβ1AR-mini-Gs complex; mean ± s.d. from three independent experiments; read off a plot
percent reduction of mini-Gs coupling against isoprenaline 1 [1] [%],percent attenuation of mini-Gs coupling against isoprenaline 1 [2] [%],percent attenuation of mini-Gs coupling against isoprenaline 1 [3] [%],percent attenuation of coupling against wild-type tβ1AR [4] [%],other: inhibition of metal-binding (%) (endogenous metal (Zn2+)),Substance
60,75,90,21.2,–,"mini-Gs construct R414, engineered minimal Gα subunit (engineered Gαs)"
–,–,–,–,11,"turkey β1-adrenergic receptor, engineered thermostabilised construct (modified β44-m23) (from UniProt P07700) E285A; H286A"
